Data: patent US20060121045A1 (published 2006)

Key:
[1] = target: T1, anthrax protective antigen (PA) (Bacillus anthracis, UniProt P13423 30-764); experiment: SPR
[2] = target: T1, anthrax protective antigen (PA); experiment: SPR (Biacore 3000), PA down; antibody analyte
[3] = target: T1, anthrax protective antigen (PA); experiment: SPR (Biacore 3000), antibody down; PA analyte
[4] = target: T1, anthrax protective antigen (PA); experiment: not stated (presumably SPR)

T1 sequence (P13423 30-764 limits assumed): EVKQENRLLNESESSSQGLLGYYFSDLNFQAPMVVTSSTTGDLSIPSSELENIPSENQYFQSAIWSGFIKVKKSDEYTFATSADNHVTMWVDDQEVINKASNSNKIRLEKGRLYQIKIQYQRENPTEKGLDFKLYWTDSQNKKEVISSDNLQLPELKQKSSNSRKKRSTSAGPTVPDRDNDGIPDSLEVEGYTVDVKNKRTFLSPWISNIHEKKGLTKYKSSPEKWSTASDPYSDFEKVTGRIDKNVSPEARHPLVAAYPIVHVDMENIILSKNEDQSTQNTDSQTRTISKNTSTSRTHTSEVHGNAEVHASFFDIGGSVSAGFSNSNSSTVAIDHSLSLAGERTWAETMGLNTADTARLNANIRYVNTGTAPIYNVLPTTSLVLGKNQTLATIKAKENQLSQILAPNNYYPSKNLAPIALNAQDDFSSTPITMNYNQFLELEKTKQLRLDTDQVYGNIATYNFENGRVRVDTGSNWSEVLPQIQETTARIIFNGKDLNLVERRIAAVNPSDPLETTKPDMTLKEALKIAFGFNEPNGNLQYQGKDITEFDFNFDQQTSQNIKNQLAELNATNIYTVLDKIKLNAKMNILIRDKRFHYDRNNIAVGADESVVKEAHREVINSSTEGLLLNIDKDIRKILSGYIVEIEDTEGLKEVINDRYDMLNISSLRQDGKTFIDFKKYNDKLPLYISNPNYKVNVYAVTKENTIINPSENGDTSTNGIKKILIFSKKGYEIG

| Binder | Kd [1] [nM] | koff [1] [s⁻¹] | kon [1] [M⁻¹ s⁻¹] | Kd [2] [nM] | kon [2] [M⁻¹ s⁻¹] | Kd [3] [nM] | kon [3] [M⁻¹ s⁻¹] | Kd [4] [nM] | fold improvement of KD over the whole antibody to PA [4] [fold] |
| --- | --- | --- | --- | --- | --- | --- | --- | --- | --- |
| anti-PA 14B7 scFv (scFv) scFv: DIQMTQTTSSLSASLGDRVTISCRASQDIRNYLNWYQQKPDGTVKLLIYYTSRLQSGVPSRFSGSGSGTDYSLTISNQEQEDIGTYFCQQGNTLPWTFGGGTKLEIKRGGGGSGGGGSGGGGSGGGGSEVQLQQSGPELVKPGASVKISCKDSGYAFSSSWMNWVKQRPGQGLEWIGRIYPGDGDTNYNGKFKGKATLTADKSSSTAYMQLSSLTSVDSAVYFCARSGLLRYAMDYWGQGTSVTVSS | 4.3 | 0.003 | 710000 |  |  |  |  |  |  |
| M18 scAb-PEG 40 kDa (scFv) scFv: DIQMTQTTSSLSASLGDRVTVSCRASQDIRNYLNWYQQKPDGTVKFLIYYTSRLQPGVPSRFSGSGSGTDYSLTINNLEQEDIGTYFCQQGNTPPWTFGGGTKLEIKRGGGGSGGGGSGGGGSGGGGSEVQLQQSGPELVKPGASVKISCKDSGYAFNSSWMNWVKQRPGQGLEWIGRIYPGDGDSNYNGKFEGKAILTADKSSSTAYMQLSSLTSVDSAVYFCARSGLLRYAMDYWGQGTSVTVSS |  |  |  | 2.6 | 27000 | 0.043 | 870000 |  |  |
| M18 scAb (scFv) scFv: DIQMTQTTSSLSASLGDRVTVSCRASQDIRNYLNWYQQKPDGTVKFLIYYTSRLQPGVPSRFSGSGSGTDYSLTINNLEQEDIGTYFCQQGNTPPWTFGGGTKLEIKRGGGGSGGGGSGGGGSGGGGSEVQLQQSGPELVKPGASVKISCKDSGYAFNSSWMNWVKQRPGQGLEWIGRIYPGDGDSNYNGKFEGKAILTADKSSSTAYMQLSSLTSVDSAVYFCARSGLLRYAMDYWGQGTSVTVSS | 0.035 | 4.2e-05 | 1.2e+06 | 0.044 | 1.4e+06 | 0.095 | 930000 | 0.054 | ~5 |
| M18 scAb-PEG 20 kDa (scFv) scFv: DIQMTQTTSSLSASLGDRVTVSCRASQDIRNYLNWYQQKPDGTVKFLIYYTSRLQPGVPSRFSGSGSGTDYSLTINNLEQEDIGTYFCQQGNTPPWTFGGGTKLEIKRGGGGSGGGGSGGGGSGGGGSEVQLQQSGPELVKPGASVKISCKDSGYAFNSSWMNWVKQRPGQGLEWIGRIYPGDGDSNYNGKFEGKAILTADKSSSTAYMQLSSLTSVDSAVYFCARSGLLRYAMDYWGQGTSVTVSS |  |  |  | 0.69 | 100000 | 0.025 | 780000 |  |  |
